B1: PPEF2 (parent)
chain: DHSGFISLDEFRQTWKLFSSHMNI
B2: NCF4 (parent)
chain: FGPDSKSSALACTLPTLPAKVYVG

Variants of: B1
Experiment: protein stability index of a GFP-peptide fusion (GPS, HEK-293T) (PSI 1-6); higher = more stable
Conditions: c terminus: a fixed tail appended
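Note: lentivirally expressed fusions sorted by FACS into six bins by GFP to DsRed ratio, PSI derived from sequencing read proportions per bin multiplied by bin number.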

Variant | protein stability index
DHSGFISLDEFRQTDKLFSSHMNI | 2.3
DHSGFISLDEFRQTAKLFSSHMNI | 1.67
DHQGFISLDEFRQTWKLFSSHMNI | 1.85
DHSGFISLDEFRITWKLFSSHMNI | 3.27
DHSGFISLDEFRQTWGLFSSHMNI | 1.32
DHSGFISLDEFDQTWKLFSSHMNI | 2.06
DHSGFIMLDEFRQTWKLFSSHMNI | 2.3
DHSGFILLDEFRQTWKLFSSHMNI | 1.83
DHSQFISLDEFRQTWKLFSSHMNI | 2.47
DHSGFISLDEFRQTWKLFSSHMRI | 1.31
DTSGFISLDEFRQTWKLFSSHMNI | 1.72

Variants of: B2
Experiment: as above
Conditions: c terminus: a fixed tail appended

Variant | protein stability index
FGPDSKSTALACTLPTLPAKVYVG | 1.89
FGPDSKSWALACTLPTLPAKVYVG | 2.65
FGPDSKSFALACTLPTLPAKVYVG | 2.86
FGPDSKSIALACTLPTLPAKVYVG | 2.44
FGPDSKSQALACTLPTLPAKVYVG | 2.29
FGPDSKSAALACTLPTLPAKVYVG | 2.32
FGPDSKSGALACTLPTLPAKVYVG | 2.77
FGPDSKSCALACTLPTLPAKVYVG | 2.44
FEPDSKSSALACTLPTLPAKVYVG | 3.43
FHPDSKSSALACTLPTLPAKVYVG | 1.61
FKPDSKSSALACTLPTLPAKVYVG | 3.02
FFPDSKSSALACTLPTLPAKVYVG | 3.06
FQPDSKSSALACTLPTLPAKVYVG | 1.49
FCPDSKSSALACTLPTLPAKVYVG | 1.12
FTPDSKSSALACTLPTLPAKVYVG | 2.06
FDPDSKSSALACTLPTLPAKVYVG | 3.1
FGPDSTSSALACTLPTLPAKVYVG | 2.78
FGPDSCSSALACTLPTLPAKVYVG | 2.02
FGPDSVSSALACTLPTLPAKVYVG | 2.07
FGPDSFSSALACTLPTLPAKVYVG | 1.53
FGPDSNSSALACTLPTLPAKVYVG | 2.8
FGPDSHSSALACTLPTLPAKVYVG | 2.29
FGPDSWSSALACTLPTLPAKVYVG | 3.06
FGPDSYSSALACTLPTLPAKVYVG | 1.43
FGPDSISSALACTLPTLPAKVYVG | 1.95
FGPDSLSSALACTLPTLPAKVYVG | 1.63

Variant | protein stability index
FGPDSRSSALACTLPTLPAKVYVG | 1.76
FGPDSDSSALACTLPTLPAKVYVG | 3.17
FGPDSKSSALANTLPTLPAKVYVG | 2.77
FGPDSKSSALARTLPTLPAKVYVG | 2.5
FGPDSKSSALATTLPTLPAKVYVG | 2.76
FGPDSKSSALAMTLPTLPAKVYVG | 2.77
FGPDSKSSALALTLPTLPAKVYVG | 2.33
FGPDSKSSALAVTLPTLPAKVYVG | 2.19
FGPDSKSSALAGTLPTLPAKVYVG | 2.41
FGPDSKSSALAKTLPTLPAKVYVG | 2.95
FGPDSKSSALADTLPTLPAKVYVG | 2.95
FGPDSKSSALACTLPTLPCKVYVG | 1.74
FGPDSKSSALACTLPTLPIKVYVG | 1.87
FGPDSKSSALACTLPTLPQKVYVG | 1.91
FGPDSKSSALACTLPTLPGKVYVG | 2.58
FGPDSKSSALACTLPTLPAFVYVG | 2.48
FGPDSKSSALACTLPTLPAIVYVG | 2.76
FGPDSKSSALACTLPTLPARVYVG | 2
FGPDSKSSALACTLPTLPAAVYVG | 2.01
FGPDSKSSALACTLPTLPAEVYVG | 2.13
FGPDSKSSALACTLPTLPATVYVG | 1.98
FGPDSKSSALACTLPTLPANVYVG | 2.49
FGPDSKSSALACTLPTLPAHVYVG | 2.19
FGPDSKSSALACTLPTLPAMVYVG | 1.64
FGPDSKSSALACTLPTLPAYVYVG | 2.58
FGPDSKSSALACTLPTLPASVYVG | 2.31

Variant | protein stability index
FGPDSKSSALACTLPTLPADVYVG | 2.64
FGPDSKSSALACTLPTLPAGVYVG | 2.38
FGPDSKSSALACTLPTLPAKCYVG | 2.58
FGPDSKSSALACTLPTLPAKIYVG | 1.91
FGPDSKSSALACTLPTLPAKDYVG | 3.28
FGPDSKSSALACTLPTLPAKNYVG | 3.32
FGPDSKSSALACTLPTLPAKLYVG | 1.91
FGPDSKSSALACTLPTLPAKHYVG | 2.44
FGPDSKSSALACTLPTLPAKAYVG | 2.71
FGPDSKSSALACTLPTLPAKQYVG | 2.81
FGPDSKSSALACTLPTLPAKPYVG | 2.73
FGPWSKSSALACTLPTLPAKVYVG | 1.18
FGPPSKSSALACTLPTLPAKVYVG | 2.23
FGPRSKSSALACTLPTLPAKVYVG | 2.1
FGPTSKSSALACTLPTLPAKVYVG | 2.14
FGPNSKSSALACTLPTLPAKVYVG | 1.84
FGPGSKSSALACTLPTLPAKVYVG | 2.1
FGPDSKSSALACTLPTNPAKVYVG | 2.27
FGPDSKSSALACTLPTSPAKVYVG | 2.16
FGPDSKSSALACTLPTVPAKVYVG | 2.29
FGPDSKSSALACTLPTMPAKVYVG | 2.24
FGPDSKSSALACTLPTCPAKVYVG | 2.14
FGPDSKSSALACTLPTGPAKVYVG | 2.59
FGPDSKSSALACTLPTPPAKVYVG | 2.6
FGPDSKSSALACTLPTFPAKVYVG | 2
FGPDSKSSALACTLPTAPAKVYVG | 2.39

Variant | protein stability index
FGPDSKSSALACTNPTLPAKVYVG | 2.32
FGPDSKSSALACTMPTLPAKVYVG | 2.77
FGPDSKSSALACTWPTLPAKVYVG | 1.51
FGPDSKSSALACTTPTLPAKVYVG | 2.54
FGPDSKSSALACTYPTLPAKVYVG | 1.86
FGPDSKSSALACTIPTLPAKVYVG | 2.15
FGPDSKSSALACTEPTLPAKVYVG | 2.76
KGPDSKSSALACTLPTLPAKVYVG | 3.17
WGPDSKSSALACTLPTLPAKVYVG | 2.63
HGPDSKSSALACTLPTLPAKVYVG | 3.84
VGPDSKSSALACTLPTLPAKVYVG | 2.92
RGPDSKSSALACTLPTLPAKVYVG | 2.54
EGPDSKSSALACTLPTLPAKVYVG | 4.28
MGPDSKSSALACTLPTLPAKVYVG | 2.68
IGPDSKSSALACTLPTLPAKVYVG | 2.64
FGPDSKSSALACTLPTLPAKVYSG | 2.62
FGPDSKSSALACTLPTLPAKVYGG | 2.66
FGPDSKSSALACTLPTLPAKVYWG | 2.07
FGPDSKSSALACTLPTLPAKVYFG | 1.78
FGPDSKSSALACTLPTLPAKVYTG | 2.96
FGPDSKSSALACTLPTLPAKVYRG | 2.81
FGPDSKSSALACTLPTLPAKVYHG | 3.06
FGPDSKSSALACTLPTLPAKVYNG | 3.2
FGPDSKSSALACTLPTLPAKVYMG | 2.34
FGGDSKSSALACTLPTLPAKVYVG | 2.07
FGQDSKSSALACTLPTLPAKVYVG | 3.09

Variant | protein stability index
FGLDSKSSALACTLPTLPAKVYVG | 2.17
FGEDSKSSALACTLPTLPAKVYVG | 3.02
FGWDSKSSALACTLPTLPAKVYVG | 1.46
FGYDSKSSALACTLPTLPAKVYVG | 1.73
FGIDSKSSALACTLPTLPAKVYVG | 2.13
FGKDSKSSALACTLPTLPAKVYVG | 2.56
FGVDSKSSALACTLPTLPAKVYVG | 1.86
FGPDSKSSAQACTLPTLPAKVYVG | 2.95
FGPDSKSSAKACTLPTLPAKVYVG | 3.29
FGPDSKSSASACTLPTLPAKVYVG | 2.64
FGPDSKSSARACTLPTLPAKVYVG | 3.23
FGPDSKSSALACTLPTLPAKVYVL | 2.56
FGPDSKSSALACTLPTLPAKVYVS | 1.97
FGPDSKSSALACTLPTLPAKVYVN | 1.85
FGPDSKSSALACGLPTLPAKVYVG | 1.85
FGPDSKSSALACYLPTLPAKVYVG | 1.86
FGPDSKSSALACWLPTLPAKVYVG | 3.59
FGPDSKSSALACSLPTLPAKVYVG | 2.44
FGPDSKSSALACCLPTLPAKVYVG | 1.96
FGPDSKSSALACFLPTLPAKVYVG | 2.39
FGPDSKSSALACHLPTLPAKVYVG | 1.85
FGPDSKSSALACELPTLPAKVYVG | 2.7
FGPDSKSSALNCTLPTLPAKVYVG | 2.78
FGPDSKSSALFCTLPTLPAKVYVG | 2.4
FGPDSKSSALCCTLPTLPAKVYVG | 2.35
FGPDSKSSALKCTLPTLPAKVYVG | 2.29

Variant | protein stability index
FGPDSKSSALSCTLPTLPAKVYVG | 2.45
FGPDSKSSALMCTLPTLPAKVYVG | 2.86
FGPDSKSSTLACTLPTLPAKVYVG | 2.44
FGPDSKSSRLACTLPTLPAKVYVG | 2.29
FGPDSKSSNLACTLPTLPAKVYVG | 2.49
FGPDSKSSYLACTLPTLPAKVYVG | 1.5
FGPDSKSSWLACTLPTLPAKVYVG | 2.52
FGPDSKSSILACTLPTLPAKVYVG | 1.86
FGPDSKSSCLACTLPTLPAKVYVG | 1.74
FGPDSKSSHLACTLPTLPAKVYVG | 2.23
FGPDSKSSALACTLPELPAKVYVG | 2.4
FGPDSKSSALACTLPSLPAKVYVG | 2.41
FGPDSKSSALACTLPILPAKVYVG | 1.66
FGPDSKSSALACTLPVLPAKVYVG | 2.08
FGPDSKSSALACTLPCLPAKVYVG | 2.02
FGPDSKSSALACTLPWLPAKVYVG | 3.26
FGPDSKSSALACTLPYLPAKVYVG | 2.45
FGPDSKSSALACTLPDLPAKVYVG | 2.45
FGPDSKSSALACTLPMLPAKVYVG | 1.76
FGPDSKSSALACTLPTLPAKVRVG | 3.24
FGPDSKSSALACTLPTLPAKVKVG | 2.95
FGPDSKSSALACTLPTLPAKVDVG | 2.83
FGPDSKSSALACTLPTLPAKVAVG | 2.71
FGPDSKSSALACTLPTLPAKVGVG | 3.11
FGPDSKSSALACTLPTLPAKVPVG | 2.96
FGPDKKSSALACTLPTLPAKVYVG | 2.28

Variant | protein stability index
FGPDPKSSALACTLPTLPAKVYVG | 2.75
FGPDEKSSALACTLPTLPAKVYVG | 3.13
FGPDLKSSALACTLPTLPAKVYVG | 2.12
FGPDRKSSALACTLPTLPAKVYVG | 2.2
FGPDIKSSALACTLPTLPAKVYVG | 2.41
FGPDSKQSALACTLPTLPAKVYVG | 3.06
FGPDSKASALACTLPTLPAKVYVG | 1.9
FGPDSKSSALACTLMTLPAKVYVG | 1.86
FGPDSKSSALACTLITLPAKVYVG | 3.1
FGPDSKSSALACTLHTLPAKVYVG | 1.67
FGPDSKSSALACTLQTLPAKVYVG | 1.89
FGPDSKSSALACTLGTLPAKVYVG | 1.61
FGPDSKSSALACTLPTLTAKVYVG | 2.03
FGPDSKSSALACTLPTLVAKVYVG | 1.55
FGPDSKSSALACTLPTLGAKVYVG | 2.12
FGPDSKSSALACTLPTLEAKVYVG | 2.23
FGPDSKSSALACTLPTLAAKVYVG | 2.98
FGPDSKSSALACTLPTLLAKVYVG | 1.65
FGPDSKSSALACTLPTLWAKVYVG | 2.77
FGPDSKSSALACTLPTLHAKVYVG | 2.26
FGPDSKSSALACTLPTLQAKVYVG | 2.02
